{"source": "patent US20110177501", "about": "“BIOSENSOR FOR DETECTION AND VISUALISATION OF SINGLE-STRANDED DNA” (MEDICAL RESEARCH COUNCIL, published 2011)", "binders": {"B1": {"name": "dT70 (ssDNA)", "DNA": "TTTTTTTTTTTTTTTTTTTTTTTTTTTTTTTTTTTTTTTTTTTTTTTTTTTTTTTTTTTTTTTTTTTTTT"}}, "key": {"[1]": {"target": "unlabeled E. coli SSB (S92C) (Escherichia coli, UniProt P0AGE0 SEQ:1-177, S92C (mature protein numbering as printed))", "test": "competition; binds dT70 28-fold more tightly than IDCC-SSB", "settings": "chain copies: 4 (stated, tetramer)", "method": "(§1) In order to obtain a molecule suitable for solution measurements, a suitably large fluorescence increase on binding DNA, together with reasonably bright fluorescence quantum yield are the main criteria. Fluorescence spectra of 250 nM labeled E. coli SSB (tetramer concentration) were measured at 30° C. in 25 mM Tris.HCl pH 7.5, 200 mM NaCl, 1 mM DTT, and 5 μM bovine serum albumin.\n(§2) In order to determine the effect of labeling on the affinity of E. coli SSB for ssDNA, dT₇₀ was titrated into a mixture of unlabeled E. coli SSB and IDCC-E. coli SSB (FIG. 4). It is apparent that low concentrations of DNA bind mainly to the unlabeled E. coli SSB, as there is only a small increase in fluorescence. This implies that the unlabeled protein has the higher affinity."}, "IDCC-E. coli SSB (G26C) [2]": {"target": "T1, IDCC-E. coli SSB (G26C) (Escherichia coli, UniProt P0AGE0 SEQ:1-177, G26C (mature protein numbering as printed))", "test": "competition; ratio Kd(IDCC-SSB)/Kd(unlabeled SSB); 200 mM NaCl, 30 C", "settings": "tags: IDCC diethylaminocoumarin label on Cys26; chain copies: 4 (stated, tetramer)", "method": "as §1, §2"}, "[3]": {"target": "6-IATR-E. coli SSB (W88C) (Escherichia coli, UniProt P0AGE0 SEQ:1-177, W88C (mature protein numbering as printed))", "test": "tight binding, saturates at 1:1 dT70:tetramer; 200 mM NaCl", "settings": "tags: 6-IATR rhodamine label on Cys88; chain copies: 4 (stated, tetramer)"}, "[4]": {"target": "6-IATR-E. coli SSB (S92C) (Escherichia coli, UniProt P0AGE0 SEQ:1-177, S92C)", "test": "25 mM Tris pH 7.5, 200 mM NaCl, 30 C", "settings": "tags: 6-IATR label on Cys92; chain copies: 4 (stated, tetramer)", "method": "as §1\n(§3) Excitation was at the appropriate wavelength for the fluorophore and the emission intensities at the maximum were measured in the absence and presence of saturating dT₇₀. The two coumarins, IDCC and MDCC gave the largest fluorescence enhancement with G26C and this mutant protein labeled with IDCC, IDCC-E. coli SSB, was chosen for further study for two reasons. Firstly it gave consistently a larger increase than MDCC. […] In the case of MDCC, reaction of its maleimide with a protein cysteine causes the production of diastereoisomers. […] In contrast, reaction of IDCC with a thiol should produce only a single molecular species."}, "MDCC-E. coli SSB (S92C)": {"target": "MDCC-E. coli SSB (S92C) (Escherichia coli, UniProt P0AGE0 SEQ:1-177, S92C)", "test": "25 mM Tris pH 7.5, 200 mM NaCl, 30 C", "settings": "tags: MDCC label on Cys92; chain copies: 4 (stated, tetramer)", "method": "as §1, §3"}, "[5]": {"target": "6-IATR-E. coli SSB (G26C) (Escherichia coli, UniProt P0AGE0 SEQ:1-177, G26C)", "test": "25 mM Tris pH 7.5, 200 mM NaCl, 30 C", "settings": "tags: 6-IATR label on Cys26; chain copies: 4 (stated, tetramer)", "method": "as §1, §3"}, "IDCC-E. coli SSB (G26C) [6]": {"target": "T1, IDCC-E. coli SSB (G26C)", "test": "25 mM Tris pH 7.5, 200 mM NaCl, 30 C", "settings": "tags: IDCC diethylaminocoumarin label on Cys26; chain copies: 4 (stated, tetramer)", "method": "as §1, §3"}, "[7]": {"target": "Alexa Fluor 546-E. coli SSB (S92C) (Escherichia coli, UniProt P0AGE0 SEQ:1-177, S92C)", "test": "25 mM Tris pH 7.5, 200 mM NaCl, 30 C", "settings": "tags: Alexa Fluor 546 label on Cys92; chain copies: 4 (stated, tetramer)", "method": "as §1, §3"}, "[8]": {"target": "Alexa Fluor 546-E. coli SSB (G26C) (Escherichia coli, UniProt P0AGE0 SEQ:1-177, G26C)", "test": "25 mM Tris pH 7.5, 200 mM NaCl, 30 C", "settings": "tags: Alexa Fluor 546 label on Cys26; chain copies: 4 (stated, tetramer)", "method": "as §1, §3"}, "IDCC-E. coli SSB (S92C)": {"target": "IDCC-E. coli SSB (S92C) (Escherichia coli, UniProt P0AGE0 SEQ:1-177, S92C)", "test": "25 mM Tris pH 7.5, 200 mM NaCl, 30 C", "settings": "tags: IDCC label on Cys92; chain copies: 4 (stated, tetramer)", "method": "as §1, §3"}, "MDCC-E. coli SSB (G26C)": {"target": "MDCC-E. coli SSB (G26C) (Escherichia coli, UniProt P0AGE0 SEQ:1-177, G26C)", "test": "25 mM Tris pH 7.5, 200 mM NaCl, 30 C", "settings": "tags: MDCC label on Cys26; chain copies: 4 (stated, tetramer)", "method": "as §1, §3"}, "[9]": {"target": "Alexa Fluor 488-E. coli SSB (G26C) (Escherichia coli, UniProt P0AGE0 SEQ:1-177, G26C)", "test": "25 mM Tris pH 7.5, 200 mM NaCl, 30 C", "settings": "tags: Alexa Fluor 488 label on Cys26; chain copies: 4 (stated, tetramer)", "method": "as §1, §3"}, "MIANS-E. coli SSB (S92C)": {"target": "MIANS-E. coli SSB (S92C) (Escherichia coli, UniProt P0AGE0 SEQ:1-177, S92C)", "test": "25 mM Tris pH 7.5, 200 mM NaCl, 30 C", "settings": "tags: MIANS label on Cys92; chain copies: 4 (stated, tetramer)", "method": "as §1, §3"}, "[10]": {"target": "Alexa Fluor 488-E. coli SSB (S92C) (Escherichia coli, UniProt P0AGE0 SEQ:1-177, S92C)", "test": "25 mM Tris pH 7.5, 200 mM NaCl, 30 C", "settings": "tags: Alexa Fluor 488 label on Cys92; chain copies: 4 (stated, tetramer)", "method": "as §1, §3"}}}
{"binder": "B1", "values": [{"measurement": "binding result", "setting": "[1]", "result": "binds"}, {"measurement": "binding signal", "setting": "IDCC-E. coli SSB (G26C) [2]", "result": "28 fold Kd vs unlabeled SSB S92C"}, {"measurement": "activity", "setting": "[3]", "result": "~4.5 fold fluorescence (+/- DNA)"}, {"measurement": "activity", "setting": "[4]", "result": "1.3 fluorescence ratio +/- dT70"}, {"measurement": "activity", "setting": "MDCC-E. coli SSB (S92C)", "result": "2.2 fluorescence ratio +/- dT70"}, {"measurement": "activity", "setting": "[5]", "result": "2.8 fluorescence ratio +/- dT70"}, {"measurement": "activity", "setting": "IDCC-E. coli SSB (G26C) [6]", "result": "6.1 fluorescence ratio +/- dT70"}, {"measurement": "activity", "setting": "[7]", "result": "1.5 fluorescence ratio +/- dT70"}, {"measurement": "activity", "setting": "[8]", "result": "2.3 fluorescence ratio +/- dT70"}, {"measurement": "activity", "setting": "IDCC-E. coli SSB (S92C)", "result": "2.8 fluorescence ratio +/- dT70"}, {"measurement": "activity", "setting": "MDCC-E. coli SSB (G26C)", "result": "4.9 fluorescence ratio +/- dT70"}, {"measurement": "activity", "setting": "[9]", "result": "3.3 fluorescence ratio +/- dT70"}, {"measurement": "activity", "setting": "MIANS-E. coli SSB (S92C)", "result": "0.4 fluorescence ratio +/- dT70"}, {"measurement": "activity", "setting": "[10]", "result": "3.1 fluorescence ratio +/- dT70"}]}
